Data reported in patent US20190248902A1 (published 2019).
Numbering of substitutions follows the chain as printed.

T1: recombinant, soluble human ASGR-1 (human, UniProt P07306 62-291)
T1 construct: biotinylated in the binning assay; also called soluble huASGR-1; Soluble ASGR-1 (Amgen)
T1 sequence: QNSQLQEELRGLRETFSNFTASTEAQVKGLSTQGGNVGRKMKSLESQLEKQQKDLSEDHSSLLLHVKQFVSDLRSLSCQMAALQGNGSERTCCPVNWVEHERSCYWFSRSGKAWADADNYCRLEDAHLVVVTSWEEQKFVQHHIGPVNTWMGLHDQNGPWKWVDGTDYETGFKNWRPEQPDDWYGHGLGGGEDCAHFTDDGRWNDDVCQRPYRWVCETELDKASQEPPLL

B1: 64E2 (antibody, V domains shown)
VH: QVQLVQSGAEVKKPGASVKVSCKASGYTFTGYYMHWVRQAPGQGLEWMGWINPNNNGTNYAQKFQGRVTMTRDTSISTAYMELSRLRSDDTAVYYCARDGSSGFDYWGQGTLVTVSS
VL: DIQMTQSPSSVSASVGDRVTITCRASQGISRWLAWYQQKPGKAPKLLIYAASSLQSGVPSRFSGSGSGTDFTLTISSLQPEDFATYYCQQANSFPFTFGPGTKVDIK
notes: hybridoma mAb
B2: 50D4 (antibody, V domains shown)
VH: QVQLVQSGAEVKKPGASVKVSCKASGYTFTGYHMHWVRQAPGQGLEWMGWINPNNNATNYAQSFQGRVTLTRDTSISTAYMELSRLRSDDTAVYYCARDGTSSFDFWGQGTLVTVSS
VL: B1 VL with V19L, L46V, S53T, K107R
notes: hybridoma mAb
B3: 4H6 (antibody, V domains shown)
VH: QVQLVQSGAEVKKPGASVKVSCKASGYTFTDYYLHWVRQAPGQGLEWMGWIHPNSGGTNYAQKFQGRVTMTRDTSISTAYMGLSSLRSDDTAVYYCARDGTSSFDYWGQGTLVTVSS
VL: B1 VL with A50G, T85I
notes: hybridoma mAb
B4: 53F7 (antibody, V domains shown)
VH: B2 VH with A57G, S63K, L70M, S84N, R87T, F106Y
VL: B1 VL with T5S, K45N, T85I
notes: hybridoma mAb
B5: 52G11 (antibody, V domains shown)
VH: B3 VH with D31G, H52N, S55R, G56N, Y80F, G82E, S85R
VL: B1 VL with R31K, I48L, G64A, I106V
notes: hybridoma mAb
B6: 53F2 (antibody, V domains shown)
VH: B3 VH with D31G, H52N, S55R, G56N, K63N, G82E, S85R, R87K
VL: B1 VL with R31K, K45N, I48L, R61K, I106V
notes: hybridoma mAb
B7: 56E5 (antibody, V domains shown)
VH: B2 VH with K23Q, S63K, L70M, S84R, Y95H, F106Y
VL: B1 VL with S30R, R31K
notes: hybridoma mAb
B8: 51E9 (antibody, V domains shown)
VH: B2 VH with G26R, M34I, N55T, A57G, N59Q, S63K, L70M, F106Y
VL: B1 VL with R31S, A50V, S76R, N92K
notes: hybridoma mAb
B9: 57A7 (antibody, V domains shown)
VH: B2 VH with M34I, G44D, A57G, S63K, L70M, T101R, S103G, F106Y
VL: B1 VL with K45N, S53N
notes: hybridoma mAb
B10: 55B1 (antibody, V domains shown)
VH: B2 VH with H33Y, M34F, N52H, S63K, L70M, R98K, T101R, F106Y
VL: B1 VL with G28V, K45N, I106L
notes: hybridoma mAb
B11: 70D1 (antibody, V domains shown)
VH: B2 VH with N55S, S63K, L70M, G100S, T101I, F104W, F106Y
VL: B1 VL with I29V, L73V
notes: hybridoma mAb
B12: 10G6 (antibody, V domains shown)
VH: B2 VH with G31A, A57G, S63K, L70M, A97G, G100V, F106Y
VL: B1 VL with R31K, L46I, S52Y, S60A, S76R
notes: hybridoma mAb
B13: 49F10 (antibody, V domains shown)
VH: B2 VH with S63N
VL: B1 VL with L46V, S53T
notes: hybridoma mAb
B14: 148E10 (antibody, V domains shown)
VH: QVQLVESGGGVVQPGRSLRLSCAASGFTFSSYGMHWVRQAPGKGLEWVAVIWFDGSNKYYVDSVKDRFTISRDNSKNTLYLQMNSLRAEDTAVYYCARDRVEGSGTPYYYYGMDVWGQGTTVTVSS
VL: SYELTQPPSVSVSPGQTASITCSGDKLGNKYVCWYQQRPGHAAVLIIYQDSKRPSGIPERFSGSNSGNTATLTISGTQAMDEADYFCQAWDRNTYVVFGGGTKLTVL
notes: hybridoma mAb
B15: 177D2 (antibody, V domains shown)
VH: QVQLVESGGGVVQPGRSLRLSCAASGFTFSSYGMDWVRQAPGKGLEWVAIIWFDGSNKYYADSVKGRFTISRDNSKNTLYLQMNSLRAEDTAVYYCARAYCGGDCYFPHLHYYGMDVWGQGTTVTVSS
VL: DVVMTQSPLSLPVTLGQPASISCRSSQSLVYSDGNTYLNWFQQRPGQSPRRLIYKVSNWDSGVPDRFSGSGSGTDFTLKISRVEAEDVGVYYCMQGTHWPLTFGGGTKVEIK
notes: hybridoma mAb
B16: 22G5 (antibody, V domains shown)
VH: EVQLLESGGGLVQPGGSLRLSCAASGFTFSSYAMNWVRQAPGMGLEWVSVISRSGGYTYYADSVKGRFTISRDNSKNTLYLQMNSLRAEDTAVYYCASRLAVAGSEAFDIWGQGTLVTVSS
VL: DIQMTQSPSSLSASVGDRVTITCRASQNISSYLNWYQQKQGKAPKLLIYAASSLQNGVPSRFSGRGSGTDFTLTISSLQPEDFATYYCQQSYRTPLFTFGPGTKVDFK
notes: hybridoma mAb
B17: 154F4 (antibody, V domains shown)
VH: QVQLVESGGGVVQPGRSLRLSCAASGFTFSSYGMHWVRQAPGKGLEWVAVIWYDGSNKYYADSVKGRFTISRDNSKNTLYLQMNSLRAEDTAVYYCAREDSYCSGTSCPYYYYYGMDVWGQGTTVTVSS
VL: SYELTQPPSVSVSPGQTASITCSGDKLGNKYVCWYQQKPGQSPVEVIYKDSKRPSGIPERFSGSNSGNTGTLTISGTQAMDEADYYCQAWDNSTLVFGGGTKLTVL
notes: hybridoma mAb
B18: 159H8 (antibody, V domains shown)
VH: B17 VH with S31T, E99D, D100R, S101V, Y102S, G105S
VL: SYELTQPPSVSVSPGQTASITCSGDKLGDKYVCWYQQKPGQSPVLVIYQDRKRPSGIPERFSGSNSGNTATLTISGTQALDEADYYCQAWGNSSFVVFGGGTKLTVL
notes: hybridoma mAb
B19: 27E7 (antibody, V domains shown)
VH: B17 VH with G105S
VL: B17 VL with V32A, K49Q, S55L, G70A, N92S, L95V
notes: hybridoma mAb
B20: 160B12 (antibody, V domains shown)
VH: B17 VH with E99D, D100R, S101V, Y102S, G105S
VL: B18 VL with Y2D, P7S, R51S
notes: hybridoma mAb
B21: 175D10 (antibody, V domains shown)
VH: QVQLVQSGAEVKKPGASVKVSCKASGYTFTNYDLNWVRQATGQGLEWMGWMHPNSGNTGYAQKFQGRVTMTRNTSISTVYMELSSLRSEDTAVYYCAYSSGWYYFDYWGQGTLVTVSS
VL: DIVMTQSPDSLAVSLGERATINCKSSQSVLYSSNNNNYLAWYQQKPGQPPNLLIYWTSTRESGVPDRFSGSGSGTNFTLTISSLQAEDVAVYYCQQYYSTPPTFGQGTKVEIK
notes: hybridoma mAb
B22: 25A4 (antibody, V domains shown)
VH: B21 VH with Q3L, K13R, L34I, H52Y, V79A, Y98S
VL: DIVMTQFPDSLAVSLGERATIKCKSSQSVLYSSHNNNYLAWYQQKPGQPPKLLLYWASTRESGVPDRFSGSGSGTEFTLTISSLEAEDVAVYYCQQYYSTPPTFGQGTKVEIK
notes: hybridoma mAb
B23: 26C4 (antibody, V domains shown)
VH: B21 VH with L34I, T41S, H52N, K63R, S77N, V79A, Y98S
VL: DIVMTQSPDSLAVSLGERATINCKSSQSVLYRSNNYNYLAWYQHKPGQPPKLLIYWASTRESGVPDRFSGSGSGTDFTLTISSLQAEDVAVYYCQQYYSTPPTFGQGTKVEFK
notes: hybridoma mAb

How the values were obtained:
[1] = target: T1, recombinant, soluble human ASGR-1; assay: Octet BLI dissociation, pH 5.6 minus calcium
Procedure: (§1) The relative dissociation of ASGR-1 from antibodies was measured using a label-free assay on an OctetHTX instrument (Fortebio). Antibody samples were captured on anti-HuFc kinetic biosensors (ForteBio cat #18-5064) at 5 ug/mL in assay buffer (10 mM Tris, 0.1% Triton, 150 mM NaCl, 1 mg/mL BSA, 1 mM CaCl2, pH7.4) for three minutes. A one minute baseline stabilization step was performed in assay buffer. Soluble ASGR-1 (Amgen) at 6 ug/ml in assay buffer was added and association to the antibodies was monitored for two minutes. Subsequent dissociation of ASGR-1 from the antibodies was performed by incubating the ASGR-1-mAb complexes for 10 minutes under each of the following conditions:
(§2) The binding signal at the end of the 2 minute association phase for each dissociation experiment was set to 100% and used to represent the maximal level of ASGR-1 binding. After 1 minute of dissociation, the percentage of ASGR-1 remaining bound was calculated. The lower the percent remaining at a given time point indicates increased levels of dissociation in response to the test conditions (ie. different pH and/or calcium concentrations). The change in the percentage of ASGR-1 remaining bound in response to each test condition relative to the percent remaining in the control conditions (ie. pH 7.4+calcium) was determined. Cut-offs for an antibody to be categorized as being sensitive to a particular condition were set to >10% (ie. if >10% of the ASGR-1 dissociates from the antibody under a particular test condition compared to control condition, it was deemed sensitive to that condition). The analysis was done using the 1 minute dissociation time point (except for mAb 149A1 which was binned based on the 4 minute dissociation time point). Using this analysis, the ASGR-1-binding, receptor-ligand blocking antibodies were separated into groups according to their dissociation profiles in response to pH and calcium (Table 7.3). Antibodies belonging to each category were observed.

[2] = target: T1, recombinant, soluble human ASGR-1; assay: Octet BLI dissociation, pH 5.6 plus calcium
Procedure: as §1, §2

[3] = target: T1, recombinant, soluble human ASGR-1; assay: Octet BLI dissociation, pH 7.4 minus calcium
Procedure: as §1, §2

Binder	% Change Compared to pH 7.4 + Calcium [1] [%]	% Change Compared to pH 7.4 + Calcium [2] [%]	% Change Compared to pH 7.4 + Calcium [3] [%]
B1	49	29	48
B2	9	0	6
B3	2	-1	5
B4	13	3	9
B5	13	1	15
B6	13	1	15
B7	-1	-6	1
B8	2	-5	3
B9	29	13	13
B10	4	-2	5
B11	29	12	17
B12	15	4	7
B13	8	-2	4
B14	33	19	7
B15	10	2	3
B16	–	35	40
B17	67	41	10
B18	26	10	6
B19	46	35	20
B20	22	8	6
B21	2	-3	4
B22	-1	-3	2
B23	2	2	3
